Data on 7 molecules can be found in patent publication US20030027766A1 (University of Texas, published 2003).

For test [1], the target named is T1, HLA-A2 (human).
T1 construct: allele written as A*02:01 on that basis; also called HLA-A2.1; A2.1
As to the kind of experiment: immunofluorescence staining of ovarian tumor OVA-16.

Test [2] has as its target T1, HLA-A2. Briefly: immunofluorescence staining of ovarian tumor OVA-14.
For test [3], the target named is certain MHC Class I heavy chains other than HLA-A2. Briefly: cell-based or functional assay.
Test [4] concerns the target T1, HLA-A2. As to the kind of experiment: HLA-A2 stabilization on T2 cells, against D113.
For test [5], the target named is T1, HLA-A2. Briefly: HLA-A2 stabilization on T2 cells.

Turning to mAb MA2.1 (anti-HLA-A2) (antibody), the results for the % HLA-A2 positive cells in test [1] and in test [2] were 85.3% and 92.1%, respectively. Further, the mean fluorescence in test [1] was 42; in test [2], 49.

B1: C43 (HER-2:968-981) (peptide)
peptide: RFRELVSEFSRMAR
On to B1, for which the inhibition of lysis of OVA-1 tumor (HLA-A2 negative) by autologous CTL-1 after pre-pulsing with peptide in test [3] stood at 45%.

B2: D114 = HER-2:47-56(48H->L) (peptide)
peptide: RLLYQGCQVV
notes: Synthetic analog
Turning to B2, the binding result in test [4] was “binds”.

B3: C81 (analog of HER-2:971-979, F->V, RM->KV) (peptide)
peptide: ELVSEVSKV
In the case of B3, in test [5], the binding result is “binds”.

B4: C44 (analog of HER-2:968-981, VS->II) (peptide)
peptide: RFRELIIEFSRMAR
Consider B4, for which the inhibition of lysis of OVA-1 tumor (HLA-A2 negative) by autologous CTL-1 after pre-pulsing with peptide in test [3] turned out to be 25%.

B5: C84 (HER-2:971-979(Val)) (peptide)
peptide: ELVSEFSRV
notes: Synthetic analog of C85
For the molecule B5, the binding result in test [5] is “binds”.

B6: D115 = HER-2:48-56(48H->G) (peptide)
peptide: GLYQGCQVV
notes: Synthetic analog
Consider B6, for which the binding result in test [4] is listed as “binds”.
